Measured values reported in patent US20050214309A1, “Methods and compositions for modulating transcription factor activity” (published 2005).

Molecular target: T1, ATF1 (Homo sapiens, UniProt P18846 SEQ:1-271)
T1 sequence: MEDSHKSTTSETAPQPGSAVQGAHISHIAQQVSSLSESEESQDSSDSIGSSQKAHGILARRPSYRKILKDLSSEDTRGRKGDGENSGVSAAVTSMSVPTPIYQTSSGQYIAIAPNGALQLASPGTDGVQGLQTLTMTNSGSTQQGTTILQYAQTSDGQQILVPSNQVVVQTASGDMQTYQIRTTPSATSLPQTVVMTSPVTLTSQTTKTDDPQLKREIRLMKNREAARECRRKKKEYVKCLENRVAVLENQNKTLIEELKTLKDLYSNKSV
Assay: competition; 100-fold excess unlabeled AP1 did not diminish ATF1/CRE complex
Conditions: tags: E. coli pET-11d, DNA-cellulose purified

B1: AP1 oligonucleotide (dsDNA)
DNA 1: CGCTTGATGAGTCAGCCGGAA
DNA 2: TTCCGGCTGACTCATCAAGCG
binding result: no binding
